Results as given in patent US20170209564A1.

What was measured:
1F2 = assay: ELISA, coated CR6261, P. pastoris medium; conditions: remark: other sources report otherwise
35H3 = assay: ELISA, coated CR6261, P. pastoris medium; conditions: remark: other sources report otherwise
36D6 = assay: ELISA, coated CR6261, P. pastoris medium; conditions: remark: other sources report otherwise
48D11 = assay: ELISA, coated CR6261, P. pastoris medium; conditions: remark: other sources report otherwise
50G10 [1] = assay: ELISA, coated CR6261, P. pastoris medium; conditions: remark: other sources report otherwise
56D2 = assay: ELISA, coated CR6261, P. pastoris medium; conditions: remark: other sources report otherwise
60A2 = assay: ELISA, coated CR6261, P. pastoris medium; conditions: remark: other sources report otherwise
63D3 = assay: ELISA, coated CR6261, P. pastoris medium; conditions: remark: other sources report otherwise
67C10 [2] = assay: ELISA, coated CR6261, P. pastoris medium; conditions: remark: other sources report otherwise
67C11 = assay: ELISA, coated CR6261, P. pastoris medium; conditions: remark: other sources report otherwise
69G8 = assay: ELISA, coated CR6261, P. pastoris medium; conditions: remark: other sources report otherwise
6A1 = assay: ELISA, coated CR6261, P. pastoris medium; conditions: remark: other sources report otherwise
71E7 = assay: ELISA, coated CR6261, P. pastoris medium; conditions: remark: other sources report otherwise
74D7 = assay: ELISA, coated CR6261, P. pastoris medium; conditions: remark: other sources report otherwise
75E9 = assay: ELISA, coated CR6261, P. pastoris medium; conditions: remark: other sources report otherwise
75H8 = assay: ELISA, coated CR6261, P. pastoris medium; conditions: remark: other sources report otherwise
79C2 = assay: ELISA, coated CR6261, P. pastoris medium; conditions: remark: other sources report otherwise
7D9 = assay: ELISA, coated CR6261, P. pastoris medium; conditions: remark: other sources report otherwise
80F10 = assay: ELISA, coated CR6261, P. pastoris medium; conditions: remark: other sources report otherwise
84E10 [3] = assay: ELISA, coated CR6261, P. pastoris medium; conditions: remark: other sources report otherwise
85A7 = assay: ELISA, coated CR6261, P. pastoris medium
86B4 = assay: ELISA, coated CR6261, P. pastoris medium; conditions: remark: other sources report otherwise
86F1 = assay: ELISA, coated CR6261, P. pastoris medium; conditions: remark: other sources report otherwise
86G2 = assay: ELISA, coated CR6261, P. pastoris medium; conditions: remark: other sources report otherwise
86H9 = assay: ELISA, coated CR6261, P. pastoris medium; conditions: remark: other sources report otherwise
87H5 = assay: ELISA, coated CR6261, P. pastoris medium; conditions: remark: other sources report otherwise
8D7 = assay: ELISA, coated CR6261, P. pastoris medium; conditions: remark: other sources report otherwise
91F10 = assay: ELISA, coated CR6261, P. pastoris medium; conditions: remark: other sources report otherwise
96H8 = assay: ELISA, coated CR6261, P. pastoris medium; conditions: remark: other sources report otherwise
9C6 = assay: ELISA, coated CR6261, P. pastoris medium; conditions: remark: other sources report otherwise
2D9 = assay: ELISA signal over HTRF expression signal, P. pastoris; conditions: remark: other sources report otherwise
48B11 = assay: as above; conditions: remark: other sources report otherwise
50G10 [4] = assay: as above; conditions: remark: other sources report otherwise
51G3 = assay: as above; conditions: remark: other sources report otherwise
55H2 = assay: as above; conditions: remark: other sources report otherwise
67C10 [5] = assay: as above; conditions: remark: other sources report otherwise
70F6 = assay: as above; conditions: remark: other sources report otherwise
74H9 = assay: as above; conditions: remark: other sources report otherwise
78G2 = assay: as above; conditions: remark: other sources report otherwise
79D5 = assay: as above; conditions: remark: other sources report otherwise
7A7 = assay: as above; conditions: remark: other sources report otherwise
84E10 [6] = assay: as above; conditions: remark: other sources report otherwise
91C8 = assay: as above; conditions: remark: other sources report otherwise
9C10 = assay: as above; conditions: remark: other sources report otherwise

B1: CR6261 (antibody, V domains shown)
VH: EVQLVESGAEVKKPGSSVKVSCKASGGPFRSYAISWVRQAPGQGPEWMGGIIPIFGTTKYAPKFQGRVTITADDFAGTVYMELSSLRSEDTAMYYCAKHMGYQVRETMDVWGKGTTVTVSS
VL: QSVLTQPPSVSAAPGQKVTISCSGSSSNIGNDYVSWYQQLPGTAPKLLIYDNNKRPSGIPDRFSGSKSGTSATLGITGLQTGDEANYYCATWDRRPTAYVVFGGGTKLTVLG
B1 was tested, and the CR6261 binding signal (1F2) was 149000, the CR6261 binding signal (35H3) was 106000 and the CR6261 binding signal (36D6) was 71300. It also gave a CR6261 binding signal (48D11) of 121000, a CR6261 binding signal (50G10 [1]) of 264000 and a CR6261 binding signal (56D2) of 146000. The CR6261 binding signal (60A2) was 92700, the CR6261 binding signal (63D3) was 146000 and the CR6261 binding signal (67C10 [2]) was 306000. For the same binder, the CR6261 binding signal (67C11) was 209000, the CR6261 binding signal (69G8) was 481000 and the CR6261 binding signal (6A1) was 300000. It also gave a CR6261 binding signal (71E7) of 203000, a CR6261 binding signal (74D7) of 359000 and a CR6261 binding signal (75E9) of 135000. For the same binder, the CR6261 binding signal (75H8) was 103000, the CR6261 binding signal (79C2) was 364000 and the CR6261 binding signal (7D9) was 77800. It also gave a CR6261 binding signal (80F10) of 90900, a CR6261 binding signal (84E10 [3]) of 255000 and a CR6261 binding signal (85A7) of 236000. The CR6261 binding signal (86B4) was 1.08e+06, the CR6261 binding signal (86F1) was 159000 and the CR6261 binding signal (86G2) was 69700. It also gave a CR6261 binding signal (86H9) of 457000, a CR6261 binding signal (87H5) of 78100 and a CR6261 binding signal (8D7) of 73400. The CR6261 binding signal (91F10) was 14800, the CR6261 binding signal (96H8) was 206000 and the CR6261 binding signal (9C6) was 271000. For the same binder, the fold increase of ratio over parental SEQ ID NO: 6 (2D9) was 2.76, the ratio (binding signal/HTRF signal) (2D9) was 16.4 and the fold increase of ratio over parental SEQ ID NO: 6 (48B11) was 3.41. The ratio (binding signal/HTRF signal) (48B11) was 20.3, the fold increase of ratio over parental SEQ ID NO: 6 (50G10 [4]) was 4.7 and the ratio (binding signal/HTRF signal) (50G10 [4]) was 27.9. It also gave a fold increase of ratio over parental SEQ ID NO: 6 (51G3) of 9.97, a ratio (binding signal/HTRF signal) (51G3) of 59.2 and a fold increase of ratio over parental SEQ ID NO: 6 (55H2) of 3.28. It also gave a ratio (binding signal/HTRF signal) (55H2) of 19.5, a fold increase of ratio over parental SEQ ID NO: 6 (67C10 [5]) of 3.99 and a ratio (binding signal/HTRF signal) (67C10 [5]) of 23.7. It also gave a fold increase of ratio over parental SEQ ID NO: 6 (70F6) of 1.63, a ratio (binding signal/HTRF signal) (70F6) of 9.66 and a fold increase of ratio over parental SEQ ID NO: 6 (74H9) of 6.09. It also gave a ratio (binding signal/HTRF signal) (74H9) of 36.1, a fold increase of ratio over parental SEQ ID NO: 6 (78G2) of 1.58 and a ratio (binding signal/HTRF signal) (78G2) of 9.36. The fold increase of ratio over parental SEQ ID NO: 6 (79D5) was 8.46, the ratio (binding signal/HTRF signal) (79D5) was 50.2 and the fold increase of ratio over parental SEQ ID NO: 6 (7A7) was 12.4. For the same binder, the ratio (binding signal/HTRF signal) (7A7) was 73.4, the fold increase of ratio over parental SEQ ID NO: 6 (84E10 [6]) was 5.37 and the ratio (binding signal/HTRF signal) (84E10 [6]) was 31.9. It also gave a fold increase of ratio over parental SEQ ID NO: 6 (91C8) of 3.51, a ratio (binding signal/HTRF signal) (91C8) of 20.8 and a fold increase of ratio over parental SEQ ID NO: 6 (9C10) of 2.91. For the same binder, the ratio (binding signal/HTRF signal) (9C10) was 17.3.
